Assay results: patent publication US9632088B2, “Methods and compositions for gamma-secretase assay” (MEMORIAL SLOAN-KETTERING CANCER CENTER, priority 2010, dated 2017)
One block for each molecule: values may come before it.

Columns and labels:
[1] = tested on: M146V PS1 γ-secretase (knock-in mouse brain); assay: In vitro N1-Sb1 γ-secretase assay, knock-in M146V PS1 mouse brain membrane; assay type: biochemical
Description: (§1) HeLa membrane fraction was isolated from HeLa-S3 cells (National Cell Culture Center). The cell pellet was resuspended in Buffer A (50 mM MES, 150 mM KCl, 5 mM CaCl2, 5 mM MgCl2) and lysed by passage through a French Press. N2a cells (murine neuroblastoma cells) over-expressing wild-type PS1, or mutants M146L or E280A, were obtained from Dr. Sangram Sisodia (University of Chicago, Chicago, Ill.). These cells were maintained in 50% Dulbecco's modified Eagle's medium high glucose, 50% Opti-Mem Reduced Serum Media, and 10% fetal calf serum. Cultured cells were pelleted by centrifugation and resuspended in hypotonic buffer (40 mM Tris, pH 7.4, 10 mM NaCl, 1 mM EDTA, and 0.5 mM DTT) for 20 minutes before being lysed with a dounce homogenizer. Nuclear debris from the HeLa and N2a cells were pelleted at 3000 rpm for 30 minutes. The resulting supernatants were ultracentrifuged at 100,000×g for 1 hour. The pellet that contained total cell membrane was resuspended in Buffer A. Mouse brains overexpressing knock-in wild type or M146V PS1 (gift from Dr. Hui Zheng, Amylin Pharmaceuticals, San Diego, Calif.) were homogenized with dounce homogenizer. The cell lysate was centrifuged at 3000 rpm for 30 minutes. The supernatants were ultracentrifuged at 100,000×g for 1 hour. Protein concentration was determined with the DC Protein Assay Kit according to the manufacturer's instructions (Bio-Rad, Hercules, Calif.).
(§2) An in vitro γ-secretase assay using a novel recombinant APP-derived substrate (termed “Sb4”) is disclosed in co-pending application U.S. Ser. No. 12/776,141. […] As a result no fluorescence signal at 520-620 nm is produced.
(§3) In the present system, antibody SM320, Protein A-conjugated acceptor beads, and Streptavidin-conjugated donor beads (PerkinElmer) were added to the reaction at a final concentration of 0.2 μg/ml, 2.5 μg/ml and 5 μg/ml, respectively (diagrammed in FIG. 5A). […] The ALPHA signal was detected using the Envision plate reader (Perkin Elmer). The reactions were excited at 680 nm and signal was detected at 615 nm.
(§4) Mouse brain specimens were obtained that either expressed knock-in wild type PS1 or the M146V PS1 mutation (25, 26). […] The cN1-Sb1 cleavage product was detected with the new in-vitro γ-secretase assay of Example 2. […]

[2] = target: T1, M146L PS1 γ-secretase (Homo sapiens, UniProt P49768, M146L); assay: In vitro N1-Sb1 γ-secretase assay, membrane of N2a cells expressing M146L PS1; assay type: biochemical, murine; conditions: M146L PS1, N2a membrane
T1 construct: total membrane
Description: as §1
(§5) An in vitro γ-secretase assay using a novel recombinant APP-derived substrate (termed “Sb4”) is disclosed in co-pending application U.S. Ser. No. 12/776,141. In the present assay based on a Notch-derived substrate, N1-Sb1 was incubated with the cell membrane fraction, prepared as described above, in the presence of 0.25% CHAPSO and 1×PIPES buffer (50 mM PIPES, pH 7.0, 150 mM KCl, 5 mM CaCl2, 5 mM MgCl2. The reaction was incubated at 37° C. for 2 hours. The Perkin Elmer AlphaScreen™ detection system was employed to assay for Notch cleavage. AlphaScreen (PerkinElmer Life and Analytical Sciences, Shelton, Conn.) is a bead based non-radioactive Amplified Luminescent Proximity Homogeneous Assay (ALPHA). When a biological interaction brings the beads together, a cascade of chemical reactions acts to produce a greatly amplified signal. Specifically, upon laser excitation, a photosensitizer in the “Donor” bead converts ambient (triplet) oxygen to the more reactive singlet state. The singlet state oxygen molecules diffuse into the solvent, and may react with a thioxene derivative in the Acceptor bead if nearby, generating chemiluminescence at 370 nm that further activates fluorophores contained in the same bead. The fluorophores subsequently emit light at 520-620 nm. In the absence of a specific biological interaction, the singlet state oxygen molecules produced by the donor bead go undetected without the close proximity of the acceptor bead. As a result no fluorescence signal at 520-620 nm is produced.
(§6) In the present system, antibody SM320, Protein A-conjugated acceptor beads, and Streptavidin-conjugated donor beads (PerkinElmer) were added to the reaction at a final concentration of 0.2 μg/ml, 2.5 μg/ml and 5 μg/ml, respectively (diagrammed in FIG. 5A). The reaction was incubated in the dark at room-temperature for 4 hours. The ALPHA signal was detected using the Envision plate reader (Perkin Elmer). The reactions were excited at 680 nm and signal was detected at 615 nm.
(§7) The effects of PS1 FAD mutations on Notch cleavage were determined using the new γ-secretase assay described in Example 2. The activities of two PS1 FAD mutations—PS1 M146L and E280A were compared against wild-type PS1 (WT), which has been previously studied (25). Total membrane was isolated from N2a cells that stably express WT, M146L, or E280A mutants. N1-Sb1 was incubated with these membranes and the resulting cN1-Sb1 was detected with SM320. […] The M146L and E280A mutants had 40% and 14% activity remaining, respectively, compared to the activity of the wild type (FIG. 7A). […]

[3] = target: T2, γ-secretase (HeLa membrane) (Homo sapiens, UniProt P49768); assay: In vitro N1-Sb1 γ-secretase assay (ALPHA detection with SM320), HeLa membrane; assay type: biochemical
T2 construct: host or cells: HeLa-S3 cells, total membrane fraction
Description: as §1
An in vitro γ-secretase assay using a novel recombinant APP-derived substrate (termed “Sb4”) is disclosed in co-pending application U.S. Ser. No. 12/776,141. In the present assay based on a Notch-derived substrate, N1-Sb1 was incubated with the cell membrane fraction, prepared as described above, in the presence of 0.25% CHAPSO and 1×PIPES buffer (50 mM PIPES, pH 7.0, 150 mM KCl, 5 mM CaCl2, 5 mM MgCl2. The reaction was incubated at 37° C. for 2 hours. The Perkin Elmer AlphaScreen™ detection system was employed to assay for Notch cleavage. AlphaScreen (PerkinElmer Life and Analytical Sciences, Shelton, Conn.) is a bead based non-radioactive Amplified Luminescent Proximity Homogeneous Assay (ALPHA). When a biological interaction brings the beads together, a cascade of chemical reactions acts to produce a greatly amplified signal. Specifically, upon laser excitation, a photosensitizer in the “Donor” bead converts ambient (triplet) oxygen to the more reactive singlet state. […] As a result no fluorescence signal at 520-620 nm is produced.
as §3
HeLa membrane was incubated with N1-Sb1 substrate in the presence of 0.25% CHAPSO. The γ-secretase cleavage product (cN1-Sb1) was detected by the PerkinElmer proximity assay (ALPHA) using the SM320 antibody, Protein A-conjugated acceptor-beads (which bind SM320) and streptavidin-conjugated donor-beads (which bind biotin) (FIG. 5A). cN1-Sb1 levels in DMSO-treated assay was 10-fold higher than in the presence of the inhibitor L-685,458 (L458; structure shown below)-treated assay. […]

[4] = target: T3, WT PS1 γ-secretase (knock-in mouse brain) (Mus musculus, UniProt P49769); assay: In vitro N1-Sb1 γ-secretase assay, knock-in wild type PS1 mouse brain membrane; assay type: biochemical
T3 construct: Total membrane from these mouse brains was isolated; tissue gift from Dr. Hui Zheng; host or cells: mouse brain (PS1 knock-in), total membrane
Description: as §1, with “The pellet that contained total cell membrane was resuspended in Buffer A. Mouse brains overexpressing knock-in wild type or M146V PS1 (gift from Dr. Hui Zheng, Amylin Pharmaceuticals, San Diego, Calif.) were homogenized with dounce homogenizer. The cell lysate was centrifuged at 3000 rpm for 30 minutes. The supernatants were ultracentrifuged at 100,000×g for 1 hour.” left out
as §2, §3, §4

[5] = target: T4, E280A PS1 γ-secretase (Homo sapiens, UniProt P49768, E280A); assay: In vitro N1-Sb1 γ-secretase assay, membrane of N2a cells expressing E280A PS1; assay type: biochemical, murine; conditions: E280A PS1, N2a membrane
T4 construct: total membrane
Description: as §1, §5, §6, §7

[6] = target: T5, wild-type PS1 γ-secretase (Homo sapiens, UniProt P49768); assay: In vitro N1-Sb1 γ-secretase assay, membrane of N2a cells expressing wild-type PS1; assay type: biochemical, murine; conditions: for reactivity (rate of γ-secretase cleavage) compared with WT substrate: WT PS1, N2a membrane
T5 construct: total membrane
Description: as §1, §5, §6, §7

[7] = read-out: Km for N1-Sb1 cleavage

Notch (N1-Sb1) cleavage activity compared to wild-type PS1 ([1]; M146V PS1 mouse brain membrane): less activity | N1-Sb1 cleavage activity remaining compared to wild type PS1 [2]: 40% | N1-Sb1 cleavage activity remaining compared to wild type PS1 [5]: 14%
B1: N1-Sb1: biotinylated recombinant substrate: human Notch1 fragment (residues 1733-1812) with AviTag (protein)
chain: PAQLHFMYVAAAAFVLLFFVGCGVLLSRKRRRQHGQLWFPEGFKVSEASKKKRREPLGEDSVGLKPLKNASDGALMDDNQN
modifications: biotinylated; Notch substrate N1Sb1 (NTM2)
notes: biotinylated recombinant substrate: human Notch1 fragment (residues 1733-1812) with AviTag
Vmax for N1-Sb1 cleavage ([1]; M146V PS1 mouse brain membrane): 40 U/μg/min | Km ([1]; M146V PS1 mouse brain membrane, read-out: Km for N1-Sb1 cleavage): 0.048 µM | Vmax for N1-Sb1 cleavage [2]: 163 U/μg/min | Km [2, 7]: 0.049 µM | Vmax of N1-Sb1 cleavage ([3]; arbitrary units): 38 Unit/μg/min | Km ([3]; read-out: apparent Km of N1-Sb1 cleavage by γ-secretase): 0.15 ± 0.03 µM | Vmax for N1-Sb1 cleavage ([4]; WT PS1 mouse brain membrane): 52 U/μg/min | Km ([4]; WT PS1 mouse brain membrane, read-out: Km for N1-Sb1 cleavage): 0.06 µM | Vmax for N1-Sb1 cleavage [5]: 49 U/μg/min | Km [5, 7]: 0.05 µM | Vmax for N1-Sb1 cleavage ([6]; PS1 wild-type, N2a membrane): 293 U/μg/min | Km ([6]; PS1 wild-type, N2a membrane, read-out: Km for N1-Sb1 cleavage): 0.07 µM

reactivity (rate of γ-secretase cleavage) compared with WT substrate [2]: 20-30% | reactivity (rate of γ-secretase cleavage) compared with WT substrate [5]: 20-30% | reactivity (rate of γ-secretase cleavage) compared with WT substrate [6]: 20-30%
B2: C1752A: N1-Sb1 substrate with P2 residue Cys 1752 substituted with Ala (protein, UniProt P46531 1733-1812, looked up, variant C1752A)
chain: QLHFMYVAAAAFVLLFFVGAGVLLSRKRRRQHGQLWFPEGFKVSEASKKKRREPLGEDSVGLKPLKNASDGALMDDNQNE
modifications: biotinylated AviTag
notes: N1-Sb1 substrate with P2 residue Cys 1752 substituted with Ala

reactivity (rate of γ-secretase cleavage) compared with WT substrate [2]: 141.3±17.9% | reactivity (rate of γ-secretase cleavage) compared with WT substrate [5]: no effect | reactivity (rate of γ-secretase cleavage) compared with WT substrate [6]: no effect
B3: C1752V: N1-Sb1 substrate with P2 residue Cys 1752 substituted with Val (protein, UniProt P46531 1733-1812, looked up, variant C1752V)
chain: QLHFMYVAAAAFVLLFFVGVGVLLSRKRRRQHGQLWFPEGFKVSEASKKKRREPLGEDSVGLKPLKNASDGALMDDNQNE
modifications: biotinylated AviTag
notes: N1-Sb1 substrate with P2 residue Cys 1752 substituted with Val

reactivity (rate of γ-secretase cleavage) compared with WT substrate ([1]; M146V knock-in PS1 mouse brain): 127.4±3.7% | reactivity (rate of γ-secretase cleavage) compared with WT substrate [2]: 166.4±6.1% | reactivity (rate of γ-secretase cleavage) compared with WT substrate ([4]; WT PS1 knock-in mouse brain): no effect | reactivity (rate of γ-secretase cleavage) compared with WT substrate [5]: 185.5±7.4% | reactivity (rate of γ-secretase cleavage) compared with WT substrate [6]: no effect
B4: C1752M: N1-Sb1 substrate with P2 residue Cys 1752 substituted with Met (protein, UniProt P46531 1733-1812, looked up, variant C1752M)
chain: QLHFMYVAAAAFVLLFFVGMGVLLSRKRRRQHGQLWFPEGFKVSEASKKKRREPLGEDSVGLKPLKNASDGALMDDNQNE
modifications: biotinylated AviTag
notes: N1-Sb1 substrate with P2 residue Cys 1752 substituted with Met
